Legend:
Assay in all cases: spectrophotometric decarboxylation kinetics
Assay type in all cases: biochemical, Bordetella bronchiseptica
Conditions in all cases: assay conditions in Supporting Information
[1] = substrate: O=C(O)C(O)(C(=O)O)c1cccs1
[2] = substrate: Cc1ccc(C(O)(C(=O)O)C(=O)O)o1
[3] = substrate: O=C(O)C(O)(C(=O)O)c1cccnc1
[4] = substrate: O=C(O)C(O)(C(=O)O)c1cc2ccccc2o1
[5] = substrate: O=C(O)C(O)(C(=O)O)c1ccco1
[6] = substrate: O=C(O)C(O)(C(=O)O)c1ccc2sccc2c1
[7] = substrate: O=C(O)C(C(=O)O)c1ccco1

B1: aryl/alkenyl malonate decarboxylase (AMDase) (Bordetella bronchiseptica) (protein)
chain: MQQASTPTIGMIVPPAAGLVPADGARLYPDLPFIASGLGLGSVTPEGYDAVIESVVDHARRLQKQGAAVVSLMGTSLSFYRGAAFNAALTVAMREATGLPCTTMSTAVLNGLRALGVRRVALATAYIDDVNERLAAFLAEESLVPTGCRSLGITGVEAMARVDTATLVDLCVRAFEAAPDSDGILLSCGGLLTLDAIPEVERRLGVPVVSSSPAGFWDAVRLAGGGAKARPGYGRLFDES
notes: AMDase, construct details only in Supporting Information
- Km [1]: 4.3 ± 0.5 mM
- kcat [1]: 166 ± 10.6 s⁻¹
- kcat/Km [1]: 38600 ± 200 M⁻¹ s⁻¹
- Km [2]: 9.8 ± 2.2 mM
- kcat [2]: 37.1 ± 8.8 s⁻¹
- kcat/Km [2]: 3800 ± 500 M⁻¹ s⁻¹
- Km [3]: 6.4 ± 0.6 mM
- kcat [3]: 225 ± 36.3 s⁻¹
- kcat/Km [3]: 35300 ± 250 M⁻¹ s⁻¹
- Km [4]: 8.2 ± 1.6 mM
- kcat [4]: 278 ± 33.9 s⁻¹
- kcat/Km [4]: 33900 ± 320 M⁻¹ s⁻¹
- Km [5]: 8.6 ± 2.1 mM
- kcat [5]: 61.9 ± 6 s⁻¹
- kcat/Km [5]: 6400 ± 400 M⁻¹ s⁻¹
- Km [6]: 3.1 ± 0.17 mM
- kcat [6]: 148 ± 4.6 s⁻¹
- kcat/Km [6]: 48300 ± 170 M⁻¹ s⁻¹
- Km [7]: 10.1 ± 4.5 mM
